*1 amine or outer side, *2 acyl side, *3 side chain or, on linkers, in order; H or OH if unused. The star is where a group is joined. C18 diacid = O=C(O)CCCCCCCCCCCCCCCCC(=O)*; γGlu = O=C(O)[C@H](CCC(=O)[*:2])N[*:1]
T1: human amylin-3(a) receptor (human, UniProt P30988 25-474; O60896 24-148)
T1 sequence (looked up) 1: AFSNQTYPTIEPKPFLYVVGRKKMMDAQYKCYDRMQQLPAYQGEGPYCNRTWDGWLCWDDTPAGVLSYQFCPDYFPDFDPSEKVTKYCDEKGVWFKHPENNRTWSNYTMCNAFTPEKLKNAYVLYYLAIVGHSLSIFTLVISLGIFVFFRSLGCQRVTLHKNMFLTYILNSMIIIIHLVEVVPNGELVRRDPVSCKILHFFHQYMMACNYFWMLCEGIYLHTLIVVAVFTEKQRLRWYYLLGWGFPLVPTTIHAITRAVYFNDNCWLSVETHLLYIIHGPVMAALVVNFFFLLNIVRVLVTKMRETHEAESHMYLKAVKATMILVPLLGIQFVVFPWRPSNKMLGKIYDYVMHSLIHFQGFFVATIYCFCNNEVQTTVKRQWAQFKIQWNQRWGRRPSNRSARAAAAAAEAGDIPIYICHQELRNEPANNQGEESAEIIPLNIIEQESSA
T1 sequence (looked up) 2: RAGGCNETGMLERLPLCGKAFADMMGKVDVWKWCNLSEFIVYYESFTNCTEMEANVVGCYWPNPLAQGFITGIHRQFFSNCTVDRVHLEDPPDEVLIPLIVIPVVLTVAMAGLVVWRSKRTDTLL

T2: human calcitonin receptor (a) (human, UniProt P30988 25-474)
T2 sequence (looked up): T1 sequence (looked up) 1

B1: N^1-[(4S)-4-carboxy-4-(17-carboxyheptadecanoylamino)butanoyl]-[Ala1,Gly2,Ser3,Leu4,Ser5,Ala7,Gln8,Ala10,Glu14,His17,Pro25,Pro28,Pro29,Asp31,Glu35,Pro37],des-(19 … (peptide)
peptide: {C18 diacid-γGlu}-AGSLSTAQTARLAEFLHHFGPILPPTDVGSETP-NH2
SMILES: CC[C@H](C)[C@H](NC(=O)[C@@H]1CCCN1C(=O)CNC(=O)[C@H](Cc1ccccc1)NC(=O)[C@H](Cc1c[nH]cn1)NC(=O)[C@H](Cc1c[nH]cn1)NC(=O)[C@H](CC(C)C)NC(=O)[C@H](Cc1ccccc1)NC(=O)[C@H](CCC(=O)O)NC(=O)[C@H](C)NC(=O)[C@H](CC(C)C)NC(=O)[C@H](CCCNC(=N)N)NC(=O)[C@H](C)NC(=O)[C@@H](NC(=O)[C@H](CCC(N)=O)NC(=O)[C@H](C)NC(=O)[C@@H](NC(=O)[C@H](CO)NC(=O)[C@H](CC(C)C)NC(=O)[C@H](CO)NC(=O)CNC(=O)[C@H](C)NC(=O)CC[C@H](NC(=O)CCCCCCCCCCCCCCCCC(=O)O)C(=O)O)[C@@H](C)O)[C@@H](C)O)C(=O)N[C@@H](CC(C)C)C(=O)N1CCC[C@H]1C(=O)N1CCC[C@H]1C(=O)N[C@H](C(=O)N[C@@H](CC(=O)O)C(=O)N[C@H](C(=O)NCC(=O)N[C@@H](CO)C(=O)N[C@@H](CCC(=O)O)C(=O)N[C@H](C(=O)N1CCC[C@H]1C(N)=O)[C@@H](C)O)C(C)C)[C@@H](C)O
B2: N^1-[(4S)-4-carboxy-4-(17-carboxyheptadecanoylamino)butanoyl]-[Ala1,Ser2,Leu4,Ala7,Gln8,Glu14,His17,Asp21,Pro22,Pro27,Asp31, Pro34,Asp35,Pro37]-human amylin (peptide)
peptide: {C18 diacid-γGlu}-ASNLATAQTQRLAEFLHHSSDPFGAIPSSTDVGPDTP-NH2
SMILES: CC[C@H](C)[C@H](NC(=O)[C@H](C)NC(=O)CNC(=O)[C@H](Cc1ccccc1)NC(=O)[C@@H]1CCCN1C(=O)[C@H](CC(=O)O)NC(=O)[C@H](CO)NC(=O)[C@H](CO)NC(=O)[C@H](Cc1c[nH]cn1)NC(=O)[C@H](Cc1c[nH]cn1)NC(=O)[C@H](CC(C)C)NC(=O)[C@H](Cc1ccccc1)NC(=O)[C@H](CCC(=O)O)NC(=O)[C@H](C)NC(=O)[C@H](CC(C)C)NC(=O)[C@H](CCCNC(=N)N)NC(=O)[C@H](CCC(N)=O)NC(=O)[C@@H](NC(=O)[C@H](CCC(N)=O)NC(=O)[C@H](C)NC(=O)[C@@H](NC(=O)[C@H](C)NC(=O)[C@H](CC(C)C)NC(=O)[C@H](CC(N)=O)NC(=O)[C@H](CO)NC(=O)[C@H](C)NC(=O)CC[C@H](NC(=O)CCCCCCCCCCCCCCCCC(=O)O)C(=O)O)[C@@H](C)O)[C@@H](C)O)C(=O)N1CCC[C@H]1C(=O)N[C@@H](CO)C(=O)N[C@@H](CO)C(=O)N[C@H](C(=O)N[C@@H](CC(=O)O)C(=O)N[C@H](C(=O)NCC(=O)N1CCC[C@H]1C(=O)N[C@@H](CC(=O)O)C(=O)N[C@H](C(=O)N1CCC[C@H]1C(N)=O)[C@@H](C)O)C(C)C)[C@@H](C)O
B3: N^1-[(4S)-4-carboxy-4-(17-carboxyheptadecanoylamino)butanoyl]-[Ala1,Gly2,Glu3,Leu4,Ser5,Ala7,Gln8,Glu14,His17,Asp21, Pro22,Pro27,Asp31, Pro34,Asp35, … (peptide)
peptide: {C18 diacid-γGlu}-AGELSTAQTQRLAEFLHHSSDPFGAIPSSTDVGPDTP-NH2
SMILES: CC[C@H](C)[C@H](NC(=O)[C@H](C)NC(=O)CNC(=O)[C@H](Cc1ccccc1)NC(=O)[C@@H]1CCCN1C(=O)[C@H](CC(=O)O)NC(=O)[C@H](CO)NC(=O)[C@H](CO)NC(=O)[C@H](Cc1c[nH]cn1)NC(=O)[C@H](Cc1c[nH]cn1)NC(=O)[C@H](CC(C)C)NC(=O)[C@H](Cc1ccccc1)NC(=O)[C@H](CCC(=O)O)NC(=O)[C@H](C)NC(=O)[C@H](CC(C)C)NC(=O)[C@H](CCCNC(=N)N)NC(=O)[C@H](CCC(N)=O)NC(=O)[C@@H](NC(=O)[C@H](CCC(N)=O)NC(=O)[C@H](C)NC(=O)[C@@H](NC(=O)[C@H](CO)NC(=O)[C@H](CC(C)C)NC(=O)[C@H](CCC(=O)O)NC(=O)CNC(=O)[C@H](C)NC(=O)CC[C@H](NC(=O)CCCCCCCCCCCCCCCCC(=O)O)C(=O)O)[C@@H](C)O)[C@@H](C)O)C(=O)N1CCC[C@H]1C(=O)N[C@@H](CO)C(=O)N[C@@H](CO)C(=O)N[C@H](C(=O)N[C@@H](CC(=O)O)C(=O)N[C@H](C(=O)NCC(=O)N1CCC[C@H]1C(=O)N[C@@H](CC(=O)O)C(=O)N[C@H](C(=O)N1CCC[C@H]1C(N)=O)[C@@H](C)O)C(C)C)[C@@H](C)O
B4: N^1-[(4S)-4-carboxy-4-(17-carboxyheptadecanoylamino)butanoyl]-[Ala1,Gly2,Glu3,Leu4,Ser5,Ala7,Gln8,Ala10,Glu14,His17,Pro25,Pro28,Pro29,Asp31,Glu35,Pro37],des-(19 … (peptide)
peptide: {C18 diacid-γGlu}-AGELSTAQTARLAEFLHHFGPILPPTDVGSETP-NH2
SMILES: CC[C@H](C)[C@H](NC(=O)[C@@H]1CCCN1C(=O)CNC(=O)[C@H](Cc1ccccc1)NC(=O)[C@H](Cc1c[nH]cn1)NC(=O)[C@H](Cc1c[nH]cn1)NC(=O)[C@H](CC(C)C)NC(=O)[C@H](Cc1ccccc1)NC(=O)[C@H](CCC(=O)O)NC(=O)[C@H](C)NC(=O)[C@H](CC(C)C)NC(=O)[C@H](CCCNC(=N)N)NC(=O)[C@H](C)NC(=O)[C@@H](NC(=O)[C@H](CCC(N)=O)NC(=O)[C@H](C)NC(=O)[C@@H](NC(=O)[C@H](CO)NC(=O)[C@H](CC(C)C)NC(=O)[C@H](CCC(=O)O)NC(=O)CNC(=O)[C@H](C)NC(=O)CC[C@H](NC(=O)CCCCCCCCCCCCCCCCC(=O)O)C(=O)O)[C@@H](C)O)[C@@H](C)O)C(=O)N[C@@H](CC(C)C)C(=O)N1CCC[C@H]1C(=O)N1CCC[C@H]1C(=O)N[C@H](C(=O)N[C@@H](CC(=O)O)C(=O)N[C@H](C(=O)NCC(=O)N[C@@H](CO)C(=O)N[C@@H](CCC(=O)O)C(=O)N[C@H](C(=O)N1CCC[C@H]1C(N)=O)[C@@H](C)O)C(C)C)[C@@H](C)O
B5: N^1-[(4S)-4-carboxy-4-(17-carboxyheptadecanoylamino)butanoyl]-[Ala1,Ser2,His3,Leu4,Ser5,Ala7,Gln8,Ala10,Glu14,His17,Asp21,Pro25,Pro28,Pro29,Asp31,Pro37]-human … (peptide)
peptide: {C18 diacid-γGlu}-ASHLSTAQTARLAEFLHHSSDNFGPILPPTDVGSNTP-NH2
SMILES: CC[C@H](C)[C@H](NC(=O)[C@@H]1CCCN1C(=O)CNC(=O)[C@H](Cc1ccccc1)NC(=O)[C@H](CC(N)=O)NC(=O)[C@H](CC(=O)O)NC(=O)[C@H](CO)NC(=O)[C@H](CO)NC(=O)[C@H](Cc1c[nH]cn1)NC(=O)[C@H](Cc1c[nH]cn1)NC(=O)[C@H](CC(C)C)NC(=O)[C@H](Cc1ccccc1)NC(=O)[C@H](CCC(=O)O)NC(=O)[C@H](C)NC(=O)[C@H](CC(C)C)NC(=O)[C@H](CCCNC(=N)N)NC(=O)[C@H](C)NC(=O)[C@@H](NC(=O)[C@H](CCC(N)=O)NC(=O)[C@H](C)NC(=O)[C@@H](NC(=O)[C@H](CO)NC(=O)[C@H](CC(C)C)NC(=O)[C@H](Cc1c[nH]cn1)NC(=O)[C@H](CO)NC(=O)[C@H](C)NC(=O)CC[C@H](NC(=O)CCCCCCCCCCCCCCCCC(=O)O)C(=O)O)[C@@H](C)O)[C@@H](C)O)C(=O)N[C@@H](CC(C)C)C(=O)N1CCC[C@H]1C(=O)N1CCC[C@H]1C(=O)N[C@H](C(=O)N[C@@H](CC(=O)O)C(=O)N[C@H](C(=O)NCC(=O)N[C@@H](CO)C(=O)N[C@@H](CC(N)=O)C(=O)N[C@H](C(=O)N1CCC[C@H]1C(N)=O)[C@@H](C)O)C(C)C)[C@@H](C)O
B6: N^1-[(4S)-4-carboxy-4-(17-carboxyheptadecanoylamino)butanoyl]-[Ala1,Gly2,Ser3,Leu4,Ser5,Ala7,Gln8,Ala10,Glu14,His17,Asp21, Pro25,Pro28,Pro29,Asp31,Pro37]-human … (peptide)
peptide: {C18 diacid-γGlu}-AGSLSTAQTARLAEFLHHSSDNFGPILPPTDVGSNTP-NH2
SMILES: CC[C@H](C)[C@H](NC(=O)[C@@H]1CCCN1C(=O)CNC(=O)[C@H](Cc1ccccc1)NC(=O)[C@H](CC(N)=O)NC(=O)[C@H](CC(=O)O)NC(=O)[C@H](CO)NC(=O)[C@H](CO)NC(=O)[C@H](Cc1c[nH]cn1)NC(=O)[C@H](Cc1c[nH]cn1)NC(=O)[C@H](CC(C)C)NC(=O)[C@H](Cc1ccccc1)NC(=O)[C@H](CCC(=O)O)NC(=O)[C@H](C)NC(=O)[C@H](CC(C)C)NC(=O)[C@H](CCCNC(=N)N)NC(=O)[C@H](C)NC(=O)[C@@H](NC(=O)[C@H](CCC(N)=O)NC(=O)[C@H](C)NC(=O)[C@@H](NC(=O)[C@H](CO)NC(=O)[C@H](CC(C)C)NC(=O)[C@H](CO)NC(=O)CNC(=O)[C@H](C)NC(=O)CC[C@H](NC(=O)CCCCCCCCCCCCCCCCC(=O)O)C(=O)O)[C@@H](C)O)[C@@H](C)O)C(=O)N[C@@H](CC(C)C)C(=O)N1CCC[C@H]1C(=O)N1CCC[C@H]1C(=O)N[C@H](C(=O)N[C@@H](CC(=O)O)C(=O)N[C@H](C(=O)NCC(=O)N[C@@H](CO)C(=O)N[C@@H](CC(N)=O)C(=O)N[C@H](C(=O)N1CCC[C@H]1C(N)=O)[C@@H](C)O)C(C)C)[C@@H](C)O

The binders below were run against T1, human amylin-3(a) receptor (assay: cell-based or functional assay).
For B1, the “hAmyR3 potency, EC50 (pM); CRE-luciferase reporter in BHK cells” value (from here on “hAmyR3 potency, EC50 (pM)”) was 0.81 pM.
In the case of B2, the “hAmyR3 potency, EC50 (pM)” value is reported as 1.88 pM.
B3 was tested, and the “hAmyR3 potency, EC50 (pM)” value was 2.43 pM.
With B4 the “hAmyR3 potency, EC50 (pM)” value was 1.25 pM.
In the case of B5, the “hAmyR3 potency, EC50 (pM)” value is reported as 1.28 pM.
B6 was tested, and the “hAmyR3 potency, EC50 (pM)” value was 1.36 pM.

Each binder was assayed against T2, human calcitonin receptor (a) (assay: cell-based or functional assay).
With B1 the “hCalcR potency, EC50 (pM); CRE-luciferase reporter in BHK cells” value (“hCalcR potency, EC50 (pM)” for short) was 1.01 pM.
In the case of B2, the “hCalcR potency, EC50 (pM)” value is reported as 1.99 pM.
For B3, the “hCalcR potency, EC50 (pM)” value was 1.58 pM.
For B4, the “hCalcR potency, EC50 (pM)” value was 1.03 pM.
B5 was tested, and the “hCalcR potency, EC50 (pM)” value was 1.63 pM.
With B6 the “hCalcR potency, EC50 (pM)” value was 1.58 pM.

Source: patent US20260209293A1 (Novo Nordisk, published 2026)
